First the molecules themselves.
T1: EsCas13d, nuclease-dead (Eubacterium siraeum, UniProt B0MS50, R295A;H300A;R849A;H854A)
T1 sequence: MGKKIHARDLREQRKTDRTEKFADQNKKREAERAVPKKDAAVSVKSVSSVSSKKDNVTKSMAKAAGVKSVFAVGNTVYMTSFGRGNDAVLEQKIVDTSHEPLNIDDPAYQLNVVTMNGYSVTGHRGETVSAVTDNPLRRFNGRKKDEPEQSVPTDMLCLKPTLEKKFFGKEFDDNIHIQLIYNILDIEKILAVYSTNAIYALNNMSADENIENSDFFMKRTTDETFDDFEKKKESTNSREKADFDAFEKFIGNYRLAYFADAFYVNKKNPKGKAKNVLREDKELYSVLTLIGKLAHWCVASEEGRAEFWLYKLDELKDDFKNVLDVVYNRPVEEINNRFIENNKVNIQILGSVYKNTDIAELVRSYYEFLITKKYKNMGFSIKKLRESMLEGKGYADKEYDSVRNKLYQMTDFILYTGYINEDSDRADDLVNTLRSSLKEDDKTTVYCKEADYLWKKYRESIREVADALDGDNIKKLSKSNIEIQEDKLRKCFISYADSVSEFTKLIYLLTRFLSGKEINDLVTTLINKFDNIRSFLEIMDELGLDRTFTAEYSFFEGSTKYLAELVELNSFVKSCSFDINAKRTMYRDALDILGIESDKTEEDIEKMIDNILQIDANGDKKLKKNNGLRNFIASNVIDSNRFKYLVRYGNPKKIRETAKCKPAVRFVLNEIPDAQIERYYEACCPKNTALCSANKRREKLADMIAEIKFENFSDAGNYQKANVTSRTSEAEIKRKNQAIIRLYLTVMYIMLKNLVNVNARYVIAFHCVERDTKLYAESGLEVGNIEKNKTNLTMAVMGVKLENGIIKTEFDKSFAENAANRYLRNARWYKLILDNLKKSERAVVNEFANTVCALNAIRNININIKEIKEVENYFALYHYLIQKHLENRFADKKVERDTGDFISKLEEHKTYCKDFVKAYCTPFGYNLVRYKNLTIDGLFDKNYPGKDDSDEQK

B1: target 1 insC 3' of 18,insG 3' of 1 (mixed)
RNA 1: CACCCGUGCAAAAAUGCAGGGGUCUAAAACUGAGCGGAUAACCUCUCUAUGG
RNA 2: GGGAAUGGAUCCACAUCUACGAAUUCGUACCAUACGAGAGGUUAUCCGCUCAGCCGAGAUCGGAAGAGCACACGU
B2: target 1 insU 3' of 20,insA 3' of 4 (mixed)
RNA 1: B1 RNA 1
RNA 2: B1 RNA 2 with A34U, C35A, U50A, C51U, A52C, G53A
B3: target 1 insC 3' of 18,insC 3' of 1 (mixed)
RNA 1: B1 RNA 1
RNA 2: B1 RNA 2 with G53C
B4: target 3 insA 3' of 22,insC 3' of 19 (mixed)
RNA 1: CACCCGUGCAAAAUUGCAGGGGUCUAAAACGACCUGAAUAUUUCAGAUCAAA
RNA 2: GGGAAUGGAUCCACAUCUACGAAUUCGUUUAUUGCAUCUGAAAUAUUCAGGUCUGCAGAUCGGAAGAGCACACGU
B5: target 3 C1U,U2G (mixed)
RNA 1: B4 RNA 1
RNA 2: GGGAAUGGAUCCACAUCUACGAAUUCGUUUUUGAUCUGAAAUAUUCAGGGUUGCAGAUCGGAAGAGCACACGU
B6: target 3 insC 3' of 5,insC 3' of 2 (mixed)
RNA 1: B4 RNA 1
RNA 2: GGGAAUGGAUCCACAUCUACGAAUUCGUUUUUGAUCUGAAAUAUUCACGGUCCUGCAGAUCGGAAGAGCACACGU
B7: target 3 insA 3' of 3,insG 3' of 1 (mixed)
RNA 1: B4 RNA 1
RNA 2: B6 RNA 2 with C48G, G50A, C53G
B8: target 3 insA 3' of 22,insG 3' of 6 (mixed)
RNA 1: B4 RNA 1
RNA 2: GGGAAUGGAUCCACAUCUACGAAUUCGUUUAUUGAUCUGAAAUAUUCGAGGUCUGCAGAUCGGAAGAGCACACGU
B9: target 3 G4A,A18G (mixed)
RNA 1: B4 RNA 1
RNA 2: B5 RNA 2 with A34G, G48A, G50U, U51C
B10: target 3 G3C,C6G (mixed)
RNA 1: B4 RNA 1
RNA 2: B5 RNA 2 with C46G, G49C, G50U, U51C
B11: target 3 insC 3' of 4,insU 3' of 3 (mixed)
RNA 1: B4 RNA 1
RNA 2: B6 RNA 2 with C48G, G49C, C52U
B12: target 3 U2A,G4A (mixed)
RNA 1: B4 RNA 1
RNA 2: B5 RNA 2 with G48A, G50A, U51C
B13: target 3 insU 3' of 22,insU 3' of 5 (mixed)
RNA 1: B4 RNA 1
RNA 2: B8 RNA 2 with A31U, G48A, A49U
B14: target 3 U2G,U8C (mixed)
RNA 1: B4 RNA 1
RNA 2: B5 RNA 2 with U44C, U51C
B15: target 3 insA 3' of 21,insC 3' of 4 (mixed)
RNA 1: B4 RNA 1
RNA 2: B8 RNA 2 with A31U, U32A, G48A, A49G, G50C
B16: target 3 C1G,U7A (mixed)
RNA 1: B4 RNA 1
RNA 2: B5 RNA 2 with U45A, G50U, U51G
B17: target 3 U7G,U8A (mixed)
RNA 1: B4 RNA 1
RNA 2: B5 RNA 2 with U44A, U45G, G50U, U51C
B18: target 3 insA 3' of 8,insU 3' of 3 (mixed)
RNA 1: B4 RNA 1
RNA 2: B6 RNA 2 with U45A, C46U, A47C, C48A, C52U
B19: target 3 C1G,U7G (mixed)
RNA 1: B4 RNA 1
RNA 2: B5 RNA 2 with U45G, G50U, U51G
B20: target 3 C6U,A13G (mixed)
RNA 1: B4 RNA 1
RNA 2: B5 RNA 2 with A39G, C46U, G50U, U51C
B21: target 3 A12G,U22A (mixed)
RNA 1: B4 RNA 1
RNA 2: B5 RNA 2 with U30A, A40G, G50U, U51C
B22: target 3 U7G,U22A (mixed)
RNA 1: B4 RNA 1
RNA 2: B5 RNA 2 with U30A, U45G, G50U, U51C
B23: target 3 insC 3' of 9,insC 3' of 4 (mixed)
RNA 1: B4 RNA 1
RNA 2: B6 RNA 2 with U44C, C46U, A47C, C48A, G50C, U51G, C52U
B24: target 3 C6U,A11U (mixed)
RNA 1: B4 RNA 1
RNA 2: B5 RNA 2 with A41U, C46U, G50U, U51C
B25: target 3 A5C (mixed)
RNA 1: B4 RNA 1
RNA 2: B5 RNA 2 with A47C, G50U, U51C
B26: target 3 insG 3' of 5,insA 3' of 3 (mixed)
RNA 1: B4 RNA 1
RNA 2: B6 RNA 2 with C48G, U51A, C52U
B27: target 3 C1G,A5C (mixed)
RNA 1: B4 RNA 1
RNA 2: B5 RNA 2 with A47C, G50U, U51G
B28: target 3 C6A,U7C (mixed)
RNA 1: B4 RNA 1
RNA 2: B5 RNA 2 with U45C, C46A, G50U, U51C
B29: target 3 C6A,U7G (mixed)
RNA 1: B4 RNA 1
RNA 2: B5 RNA 2 with U45G, C46A, G50U, U51C
B30: target 3 U7G,A18G (mixed)
RNA 1: B4 RNA 1
RNA 2: B5 RNA 2 with A34G, U45G, G50U, U51C
B31: target 3 U7A (mixed)
RNA 1: B4 RNA 1
RNA 2: B5 RNA 2 with U45A, G50U, U51C
B32: target 3 insU 3' of 22,insA 3' of 3 (mixed)
RNA 1: B4 RNA 1
RNA 2: B8 RNA 2 with A31U, G48A, A49G, G51A

Residue numbers refer to the chain shown, from its start. Names may count otherwise.

A word on the Kd: it is the constant that tells how readily two partners part at equilibrium. Higher therefore signals weaker binding.

For this data set, the target named is T1, EsCas13d, nuclease-dead. Briefly: crRNA (strand 1, pre-loaded); Mg2+; 40 mM Tris-HCl pH 7.5, 150 mM NaCl, 6 mM MgCl2, 1 mM DTT, 0.1% Tween-20, 0.2 mg/ml BSA; 25 C; 10 min per concentration, then washed. Particulars: tags: His6-TwinStrep-SUMO cleaved; N-terminal SNAP kept (SNAP-Surface 488); label: 3' end held by stalled T7 RNA polymerase.
B1 showed a Kd of 34 ± 4 nM. Then B2, with 8.6 ± 0.7 nM; and B3, with 29 ± 5 nM.

In turn, B4 came in with a Kd of 91 ± 25.5 nM. This Kd is about 3.1-fold higher than that of the molecule before. On to B5, for which the affinity, expressed as Kd, was 91 ± 20 nM. The molecule B6 displayed a Kd of 9.9 ± 1.35 nM. The same measure for B7: 52 ± 11 nM; for B8: 12.2 ± 1.3 nM. Then B9, with 13.7 ± 1.15 nM; and B10, with 34.2 ± 4.7 nM.

Regarding B11, binding was put at a Kd of 29.1 ± 3.6 nM. In turn, B12 had a Kd of 3.11 ± 0.33 nM. Then B13, with 6.45 ± 0.55 nM; and B14, with 20.6 ± 2.2 nM; and B15, with 50.5 ± 15.5 nM.

In turn, B16 showed a dissociation constant Kd of 15.3 ± 4.1 nM. This Kd lies about 3.3-fold lower than the previous one. Then B17, with 67 ± 12 nM; and B18, with 70 ± 20 nM; and B19, with 28.9 ± 5.65 nM. The same measure for B20: 34 ± 6 nM; for B21: 40.5 ± 5.5 nM; for B22: 41 ± 5.5 nM. Then B23, with 87.5 ± 28 nM. The molecule B24 yielded a dissociation constant (Kd) of 92 ± 24 nM. B25 displayed a Kd of 64.5 ± 11 nM. B26 gave a Kd of 17.2 ± 2.55 nM. Against the preceding molecule, the Kd is about 3.8-fold lower.

For the molecule B27, binding was characterised by a dissociation constant (Kd) of 83.5 ± 23 nM. Then B28, with 69 ± 9.5 nM. Then B29, with 58 ± 6.5 nM; and B30, with 64 ± 22.5 nM.

Regarding B31, the Kd was found to be 27.8 ± 3.6 nM. The same measure for B32: 22.1 ± 2.4 nM.

These data come from publication PMC10786891, “Massively parallel profiling of RNA-targeting CRISPR-Cas13d”.
